# Where no end group is shown, it is not given here.
# Columns and labels:
# [1] = molecular target: human plasma fibronectin (human) (UniProt P02751); test: ITC, peptide injected into human plasma FN, PBS pH 7.4, 25 C, triplicate; parameters: ΔS: unit not given here
# [2] = molecular target: human plasma fibronectin (human) (UniProt P02751); test: cell-based or functional assay
# [3] = molecular target: EDA-containing cellular fibronectin made by human fibroblasts and human proximal tubular epithelial cells (human), P02751; test: cell-based or functional assay
# EDA-containing cellular fibronectin made by human fibroblasts and human proximal tubular epithelial cells (human), P02751, sequence (P02751 32-2477): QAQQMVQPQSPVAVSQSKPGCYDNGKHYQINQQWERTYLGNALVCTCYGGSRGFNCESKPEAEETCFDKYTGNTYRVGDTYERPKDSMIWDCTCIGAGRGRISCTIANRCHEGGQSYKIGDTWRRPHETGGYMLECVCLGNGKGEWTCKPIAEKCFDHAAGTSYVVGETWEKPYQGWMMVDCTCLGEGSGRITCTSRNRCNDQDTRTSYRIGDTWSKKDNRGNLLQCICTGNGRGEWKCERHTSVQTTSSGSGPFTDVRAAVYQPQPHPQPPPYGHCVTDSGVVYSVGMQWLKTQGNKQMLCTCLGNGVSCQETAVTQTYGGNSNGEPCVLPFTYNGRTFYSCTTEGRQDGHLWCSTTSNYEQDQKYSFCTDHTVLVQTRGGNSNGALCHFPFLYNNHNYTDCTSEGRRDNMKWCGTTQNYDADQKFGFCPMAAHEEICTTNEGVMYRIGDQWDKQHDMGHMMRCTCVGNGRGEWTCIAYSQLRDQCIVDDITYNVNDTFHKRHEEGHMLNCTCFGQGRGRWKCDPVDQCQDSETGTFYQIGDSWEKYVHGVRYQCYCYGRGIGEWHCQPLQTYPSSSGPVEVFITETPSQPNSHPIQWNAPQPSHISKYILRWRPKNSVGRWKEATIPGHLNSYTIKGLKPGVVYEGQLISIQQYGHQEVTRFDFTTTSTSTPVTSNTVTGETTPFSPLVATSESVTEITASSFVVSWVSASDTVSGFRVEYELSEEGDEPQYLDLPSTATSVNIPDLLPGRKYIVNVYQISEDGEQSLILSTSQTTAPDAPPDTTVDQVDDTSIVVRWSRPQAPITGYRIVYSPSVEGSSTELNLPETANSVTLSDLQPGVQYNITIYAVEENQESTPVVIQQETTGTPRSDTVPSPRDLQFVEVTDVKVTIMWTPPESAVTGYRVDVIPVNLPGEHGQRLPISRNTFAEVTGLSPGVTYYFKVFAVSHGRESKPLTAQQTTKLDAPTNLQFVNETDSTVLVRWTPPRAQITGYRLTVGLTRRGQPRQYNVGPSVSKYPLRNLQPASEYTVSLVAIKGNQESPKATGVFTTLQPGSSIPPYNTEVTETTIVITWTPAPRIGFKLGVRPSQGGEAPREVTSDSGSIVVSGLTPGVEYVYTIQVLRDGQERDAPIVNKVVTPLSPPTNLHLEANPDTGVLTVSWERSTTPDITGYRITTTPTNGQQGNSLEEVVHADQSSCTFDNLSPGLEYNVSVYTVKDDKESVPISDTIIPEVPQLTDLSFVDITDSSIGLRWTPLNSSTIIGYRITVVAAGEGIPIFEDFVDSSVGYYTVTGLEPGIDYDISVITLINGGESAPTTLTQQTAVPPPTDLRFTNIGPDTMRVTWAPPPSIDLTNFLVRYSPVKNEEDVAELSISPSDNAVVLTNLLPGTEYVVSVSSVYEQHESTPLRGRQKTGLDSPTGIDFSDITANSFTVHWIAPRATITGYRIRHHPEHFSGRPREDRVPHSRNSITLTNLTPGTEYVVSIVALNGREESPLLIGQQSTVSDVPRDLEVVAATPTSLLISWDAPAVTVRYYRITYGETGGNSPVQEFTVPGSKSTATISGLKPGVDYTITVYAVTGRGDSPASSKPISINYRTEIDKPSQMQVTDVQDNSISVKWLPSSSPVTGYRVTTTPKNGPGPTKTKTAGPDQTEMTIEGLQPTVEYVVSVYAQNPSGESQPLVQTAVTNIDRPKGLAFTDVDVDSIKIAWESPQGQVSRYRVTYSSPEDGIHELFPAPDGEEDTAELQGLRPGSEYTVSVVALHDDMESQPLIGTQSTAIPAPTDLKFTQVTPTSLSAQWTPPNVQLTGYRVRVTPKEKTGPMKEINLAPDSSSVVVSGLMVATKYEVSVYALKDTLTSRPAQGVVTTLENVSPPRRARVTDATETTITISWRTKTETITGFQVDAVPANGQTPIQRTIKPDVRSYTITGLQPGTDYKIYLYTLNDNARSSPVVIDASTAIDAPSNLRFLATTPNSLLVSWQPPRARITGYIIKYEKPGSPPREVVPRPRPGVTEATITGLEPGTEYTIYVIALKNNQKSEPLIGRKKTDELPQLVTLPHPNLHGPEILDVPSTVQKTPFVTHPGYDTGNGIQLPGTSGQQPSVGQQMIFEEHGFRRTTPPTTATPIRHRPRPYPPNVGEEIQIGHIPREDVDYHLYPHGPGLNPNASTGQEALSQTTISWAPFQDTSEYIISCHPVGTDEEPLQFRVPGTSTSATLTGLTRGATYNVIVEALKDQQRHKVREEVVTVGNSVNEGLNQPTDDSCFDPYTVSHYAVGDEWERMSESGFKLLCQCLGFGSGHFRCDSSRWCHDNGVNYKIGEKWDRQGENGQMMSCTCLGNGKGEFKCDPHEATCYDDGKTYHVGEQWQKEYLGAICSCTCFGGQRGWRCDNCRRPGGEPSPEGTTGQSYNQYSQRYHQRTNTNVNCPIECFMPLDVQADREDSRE
Molecule,Kd [1] [nM],n [1],ΔG [1] [kcal/mol],ΔH [1] [kcal/mol],ΔS [1],"IC50, inhibition of A488-FN fibrillogenesis [2] [nM]","percent inhibition of A488-FN fibrillogenesis, doses up to 20 µM [2] [%]","IC50, inhibition of endogenous EDA+-fibronectin fibrillogenesis (human fibroblasts and HK-2 cells) [3] [nM]"
40 kDa PEG-FUD (peptide),14.7,1.43,-10.9,-32.5,-73,,,
20 kDa PEG-FUD (peptide),10,1.63,-10,-30,-66,25 to 30,60,
functional upstream domain (FUD) peptide,6,1.59,-11.4,-31,-65,25 to 30,60,
10 kDa PEG-FUD (peptide),4.6,1.55,-11.4,-34,-74,,,
KDQSPLAGESGETEYITEVYGNQQNPVDIDKKLPNETGFSGNMVETEDT [functional upstream domain (FUD) peptide],,,,,,,,30
{mPEG 20 kDa}-KDQSPLAGESGETEYITEVYGNQQNPVDIDKKLPNETGFSGNMVETEDT (not fully specified) [20 kDa PEG-FUD],,,,,,,,30

# Reference: patent US20190142956A1
